target: IL-17A (agonist in the IL-17RA/IL17RC dimerization assay) (UniProt Q16552 24-155); assay: cell-based or functional assay
Sequence (Q16552 24-155 limits assumed): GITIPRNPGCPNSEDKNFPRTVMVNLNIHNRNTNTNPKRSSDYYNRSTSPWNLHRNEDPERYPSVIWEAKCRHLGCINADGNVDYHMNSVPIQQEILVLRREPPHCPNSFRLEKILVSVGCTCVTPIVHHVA

| Binder | IC50 in IL-17RA/IL7RC dimerization assay |
| --- | --- |
| Ac-IHVTAPADLWDWINK-NH2 [peptide of SEQ ID NO: 179] | < 10 µM |
| Ac-IHVTIPADLWDWVEE-NH2 [peptide of SEQ ID NO: 15] | < 0.4 µM |
| Ac-IHVYIPADLWDWINK-NH2 [peptide of SEQ ID NO: 176] | < 10 µM |
| Ac-IHVTFPADLWDWINK-NH2 [peptide of SEQ ID NO: 184] | < 10 µM |
| Ac-IHVTIPADLWDWIEK-NH2 [peptide of SEQ ID NO: 11] | < 0.4 µM |
| Ac-IHVTILADLWDWINK-NH2 [peptide of SEQ ID NO: 188] | < 10 µM |
| Ac-IYVTIPADLWDWINK-NH2 [peptide of SEQ ID NO: 166] | < 10 µM |
| Ac-IHVTYPADLWDWINK-NH2 [peptide of SEQ ID NO: 185] | < 10 µM |
| Ac-IHWTIPADLWDWINK-NH2 [peptide of SEQ ID NO: 173] | < 10 µM |
| Ac-IHVQIPADLWDWINK-NH2 [peptide of SEQ ID NO: 178] | < 10 µM |
| Ac-IQVTIPADLWDWINK-NH2 [peptide of SEQ ID NO: 165] | < 10 µM |
| Ac-IHVTVPADLWDWINK-NH2 [peptide of SEQ ID NO: 183] | < 10 µM |
| Ac-IHLTIPADLWDWINK-NH2 [peptide of SEQ ID NO: 169] | < 10 µM |
| Ac-IHVTIIADLWDWINK-NH2 [peptide of SEQ ID NO: 190] | < 10 µM |
| Ac-IHFTIPADLWDWINK-NH2 [peptide of SEQ ID NO: 174] | < 10 µM |
| Ac-IHYTIPADLWDWINK-NH2 [peptide of SEQ ID NO: 172] | < 10 µM |
| Ac-IHVTIVADLWDWINK-NH2 [peptide of SEQ ID NO: 189] | < 10 µM |
| Ac-VMVTIPADLYEWINK-NH2 [peptide of SEQ ID NO: 16] | < 0.4 µM |
| Ac-IHVTIGADLWDWINK-NH2 [peptide of SEQ ID NO: 187] | < 10 µM |
| Ac-IHVSIPADLWDWINK-NH2 [peptide of SEQ ID NO: 175] | < 10 µM |
| Ac-IHITIPADLWDWINK-NH2 [peptide of SEQ ID NO: 171] | < 10 µM |
| Ac-IHGTIPADLWDWINK-NH2 [peptide of SEQ ID NO: 168] | < 10 µM |
| Ac-IHPTIPADLWDWINK-NH2 [peptide of SEQ ID NO: 170] | < 10 µM |
| Ac-IHVTGPADLWDWINK-NH2 [peptide of SEQ ID NO: 180] | < 10 µM |
| Ac-IHATIPADLWDWINK-NH2 [peptide of SEQ ID NO: 167] | < 10 µM |
| Ac-IHVNIPADLWDWINK-NH2 [peptide of SEQ ID NO: 177] | < 10 µM |
| Ac-IEVTIPADLWDWINK-NH2 [peptide of SEQ ID NO: 164] | < 10 µM |
| Ac-IHVTLPADLWDWINK-NH2 [peptide of SEQ ID NO: 181] | < 10 µM |

Other lines, results leading:

| IC50 in IL-17RA/IL7RC dimerization assay | Binder |
| --- | --- |
| < 10 µM | Ac-IHVTIPADIWDWINK-NH2 [peptide of SEQ ID NO: 205] |
| < 10 µM | Ac-IHVTIPADLWNWINK-NH2 [peptide of SEQ ID NO: 208] |
| < 10 µM | Ac-IHVTIPADLWDWKNK-NH2 [peptide of SEQ ID NO: 213] |
| < 10 µM | Ac-IHVTIPADLWDWFNK-NH2 [peptide of SEQ ID NO: 218] |
| < 10 µM | Ac-IHVTIPAYLWDWINK-NH2 [peptide of SEQ ID NO: 200] |
| < 10 µM | Ac-VHVTVPQELYEWVRR-NH2 [peptide of SEQ ID NO: 226] |
| < 10 µM | Ac-VHVTVPQELWEWVRR-NH2 [peptide of SEQ ID NO: 224] |
| < 10 µM | Ac-IHVTIPADGWDWINK-NH2 [peptide of SEQ ID NO: 202] |
| < 10 µM | Ac-IHVTIPADLWDWIQK-NH2 [peptide of SEQ ID NO: 220] |
| < 10 µM | Ac-IHVTIPADLWDWANK-NH2 [peptide of SEQ ID NO: 214] |
| < 10 µM | Ac-IHVTIPADLWDWLNK-NH2 [peptide of SEQ ID NO: 216] |
| < 10 µM | Ac-IHVTIPADLWDWINH-NH2 [peptide of SEQ ID NO: 222] |
| < 10 µM | Ac-IHVTIPADLFDWINK-NH2 [peptide of SEQ ID NO: 207] |
| < 10 µM | Ac-IHVTIPADVWDWINK-NH2 [peptide of SEQ ID NO: 204] |
| < 10 µM | Ac-IHVTIPADLWDWENK-NH2 [peptide of SEQ ID NO: 212] |
| < 10 µM | Ac-IHVTIPADAWDWINK-NH2 [peptide of SEQ ID NO: 201] |
| < 10 µM | Ac-VHVTVPQELFEWVRR-NH2 [peptide of SEQ ID NO: 225] |
| < 10 µM | Ac-IHVTIPADLWDWIDK-NH2 [peptide of SEQ ID NO: 221] |

| IC50 in IL-17RA/IL7RC dimerization assay | Binder |
| --- | --- |
| < 10 µM | Ac-IHVTIPAQLWDWINK-NH2 [peptide of SEQ ID NO: 199] |
| < 10 µM | Ac-IHVTIPADPWDWINK-NH2 [peptide of SEQ ID NO: 203] |
| < 10 µM | Ac-IHVTIPADLWDWYNK-NH2 [peptide of SEQ ID NO: 219] |
| < 10 µM | Ac-IHVTIPIDLWDWINK-NH2 [peptide of SEQ ID NO: 196] |
| < 10 µM | Ac-IHVTIPADLWDHINK-NH2 [peptide of SEQ ID NO: 209] |
| < 10 µM | Ac-IHVTIPADLWDFINK-NH2 [peptide of SEQ ID NO: 210] |
| < 10 µM | Ac-IHVTIPADLWDYINK-NH2 [peptide of SEQ ID NO: 211] |
| < 10 µM | Ac-IHVTINADLWDWINK-NH2 [peptide of SEQ ID NO: 191] |
| < 10 µM | Ac-IHVTIPADLHDWINK-NH2 [peptide of SEQ ID NO: 206] |
| < 10 µM | Ac-IHVTIPNDLWDWINK-NH2 [peptide of SEQ ID NO: 197] |
| < 10 µM | Ac-IHVTIPLDLWDWINK-NH2 [peptide of SEQ ID NO: 193] |
| < 10 µM | Ac-IHVTIPADLWDWPNK-NH2 [peptide of SEQ ID NO: 217] |
| < 10 µM | Ac-IHVTIPQDLWDWINK-NH2 [peptide of SEQ ID NO: 198] |
| < 10 µM | Ac-IHVTIPADLWDWGNK-NH2 [peptide of SEQ ID NO: 215] |
| < 10 µM | Ac-IHVTIPADLWDWIND-NH2 [peptide of SEQ ID NO: 223] |
| < 10 µM | Ac-IHVTIPVDLWDWINK-NH2 [peptide of SEQ ID NO: 195] |
| < 10 µM | Ac-IHVTIPPDLWDWINK-NH2 [peptide of SEQ ID NO: 194] |

— patent publication US20220112244A1 (DOMPE FARMACEUTICI S P A, published 2022)
